Target: Jak2 (UniProt O60674)
Assay: phosphorylation enrichment, bacterial display (enrichment ratio); higher = better substrate or ligand; peptides without Tyr show the background
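Further: 11-residue human phosphosite peptides and single-mutation variants displayed on the E. coli surface, counted by deep sequencing, each peptide's frequency after selection divided by its frequency in the unselected input library; frequency after pTyr selection over input frequency; kinase dosed for 20-30% of maximal phosphorylation in three min.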

Sequence of Jak2 (O60674 whole entry, looked up): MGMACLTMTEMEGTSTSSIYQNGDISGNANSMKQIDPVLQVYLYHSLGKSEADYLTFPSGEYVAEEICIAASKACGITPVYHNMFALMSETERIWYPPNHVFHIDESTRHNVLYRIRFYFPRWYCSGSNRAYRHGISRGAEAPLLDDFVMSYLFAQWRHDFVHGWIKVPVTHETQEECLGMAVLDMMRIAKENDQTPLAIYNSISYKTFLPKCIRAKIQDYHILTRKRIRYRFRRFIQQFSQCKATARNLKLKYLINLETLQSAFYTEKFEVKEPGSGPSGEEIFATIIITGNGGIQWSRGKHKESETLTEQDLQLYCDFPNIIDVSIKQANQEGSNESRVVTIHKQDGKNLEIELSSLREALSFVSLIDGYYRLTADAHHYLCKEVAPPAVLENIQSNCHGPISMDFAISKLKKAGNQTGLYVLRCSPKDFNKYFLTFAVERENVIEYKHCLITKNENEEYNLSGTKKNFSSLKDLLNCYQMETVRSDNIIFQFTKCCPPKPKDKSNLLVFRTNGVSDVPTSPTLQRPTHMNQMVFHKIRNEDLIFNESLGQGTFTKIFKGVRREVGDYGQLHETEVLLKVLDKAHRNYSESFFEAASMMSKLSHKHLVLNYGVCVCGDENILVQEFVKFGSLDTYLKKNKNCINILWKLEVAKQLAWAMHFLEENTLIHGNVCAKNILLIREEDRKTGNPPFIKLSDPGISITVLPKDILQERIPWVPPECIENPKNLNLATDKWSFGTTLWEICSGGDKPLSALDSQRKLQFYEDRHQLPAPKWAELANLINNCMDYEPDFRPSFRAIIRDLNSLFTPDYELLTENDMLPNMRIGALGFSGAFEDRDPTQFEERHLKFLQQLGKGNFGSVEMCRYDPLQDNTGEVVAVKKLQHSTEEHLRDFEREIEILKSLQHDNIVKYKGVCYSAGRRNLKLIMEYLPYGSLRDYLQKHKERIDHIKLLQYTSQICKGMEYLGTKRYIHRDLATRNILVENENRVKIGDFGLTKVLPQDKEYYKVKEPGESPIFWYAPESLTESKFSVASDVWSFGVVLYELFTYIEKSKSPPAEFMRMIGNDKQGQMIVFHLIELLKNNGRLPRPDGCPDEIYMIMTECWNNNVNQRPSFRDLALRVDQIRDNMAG

Sequence	phosphorylation enrichment
MNPPPYSQFLS [FGF23_Y154]	0.687
LQFRNYQQLFD [MAN2A1_Y442_K440R]	2.42
SWKRRYFLLWA [APBB1IP_Y331_R335W]	0.571
ADRSCYDLSCR [GARS1_Y467_H472R]	0.8
KNDSKYVVKGN [KIT_Y823_N822K]	0.677
FSEVRYMKEPF [HIPK4_Y170_V171M_YF]	0.741
VNFDDYTVNLG [GFPT1_Y367]	1.39
DDSSAYCSVDE [BCKDHA_Y345_R346C]	0.978
WASGIYFVPKG [APBB1IP_Y340_R335W_YF]	7.69
VVLVSYVPSSQ [SH2B1_Y624]	0.751
ISSLDYISKSK [VAV3_Y294_T298S]	0.743
PIPAAYNRFDQ [CDC73_Y290_YF]	0.833
RCYVYYYSYLL [PTEN_Y177_R173C]	2.13
YSMGCYEFSLG [HMGCL_Y198_I200F]	1.06
VDLIVYLRTNP [TK2_Y181]	1.06
LEAVSYSSPYA [RNLS_Y190_R193P]	1.51
ATGGFYSFGGG [KRT24_Y120_YF]	0.706

Sequence	phosphorylation enrichment
PKGTGCIKTEL [STAT1_Y701_Y701C]	0.808
GKVADYIPQLP [GLS_Y249_A254P]	0.892
NTPNAYLRVNV [ADD2_Y440_T439A]	0.806
EQKKFYNAMKN [SCN5A_Y1495_K1500N_YF]	0.41
YQNGMYGLHQD [SGSH_Y89_H84Y]	0.712
YPPTHYIRRVP [SLC4A11_Y820]	0.76
SVTCTSSPALN [TP53_Y126_Y126S]	1.18
LNCAGYCDALE [MTUS1_Y151]	1.32
AIGYEYSEINI [SIGLEC12_Y588]	0.987
VVEYGYEFFAK [PPP1CB_Y254_D252Y]	1.47
TSNQEYLDVSM [FGFR1_Y766_L769V]	0.958
CFSSEYHFVGG [CTSC_Y345_Y340C_YF]	1.61
YAKSVYWDNTL [NUP107_Y296_E298D]	0.69
VHNLDYYKQTT [FGFR3_Y647_K650Q]	0.945
GISDEYHVIQH [GCDH_Y398_R402Q]	0.883
HRDDGYMPMSP [IRS1_Y612_T608R]	1.16

Target: EPHB2 (UniProt P29323)
Sequence (P29323 whole entry, looked up): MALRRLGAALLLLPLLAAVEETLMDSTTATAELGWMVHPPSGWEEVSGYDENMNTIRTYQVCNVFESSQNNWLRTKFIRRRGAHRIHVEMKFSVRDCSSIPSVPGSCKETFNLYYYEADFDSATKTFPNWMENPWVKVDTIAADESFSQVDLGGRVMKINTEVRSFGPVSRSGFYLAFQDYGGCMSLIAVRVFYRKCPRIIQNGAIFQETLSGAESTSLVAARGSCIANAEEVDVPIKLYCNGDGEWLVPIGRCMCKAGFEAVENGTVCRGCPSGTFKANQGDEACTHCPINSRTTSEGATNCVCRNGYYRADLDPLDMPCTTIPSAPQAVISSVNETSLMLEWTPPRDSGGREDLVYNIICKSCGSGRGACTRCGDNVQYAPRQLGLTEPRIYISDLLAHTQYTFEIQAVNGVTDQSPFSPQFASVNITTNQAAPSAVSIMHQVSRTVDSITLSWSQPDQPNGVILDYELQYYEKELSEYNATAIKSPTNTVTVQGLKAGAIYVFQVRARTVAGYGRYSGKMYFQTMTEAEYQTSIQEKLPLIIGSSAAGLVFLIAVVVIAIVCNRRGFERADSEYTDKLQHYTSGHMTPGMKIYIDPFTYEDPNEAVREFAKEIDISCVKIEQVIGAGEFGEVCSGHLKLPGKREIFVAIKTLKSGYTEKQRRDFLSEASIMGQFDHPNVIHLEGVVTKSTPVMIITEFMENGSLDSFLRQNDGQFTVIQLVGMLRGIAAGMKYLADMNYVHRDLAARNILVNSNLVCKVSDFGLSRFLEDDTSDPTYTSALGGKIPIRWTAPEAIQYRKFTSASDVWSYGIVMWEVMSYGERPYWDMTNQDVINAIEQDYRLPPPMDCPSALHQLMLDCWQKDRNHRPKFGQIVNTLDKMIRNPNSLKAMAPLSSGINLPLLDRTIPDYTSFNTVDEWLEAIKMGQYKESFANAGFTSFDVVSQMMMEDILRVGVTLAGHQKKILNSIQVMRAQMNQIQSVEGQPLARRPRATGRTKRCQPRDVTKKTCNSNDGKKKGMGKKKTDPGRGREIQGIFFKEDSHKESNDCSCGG
Assay: as above

Sequence	phosphorylation enrichment
MNPPPYSQFLS [FGF23_Y154]	0.44
LQFRNYQQLFD [MAN2A1_Y442_K440R]	0.928
SWKRRYFLLWA [APBB1IP_Y331_R335W]	0.5
ADRSCYDLSCR [GARS1_Y467_H472R]	0.591
KNDSKYVVKGN [KIT_Y823_N822K]	0.317
FSEVRYMKEPF [HIPK4_Y170_V171M_YF]	0.459
VNFDDYTVNLG [GFPT1_Y367]	0.691
DDSSAYCSVDE [BCKDHA_Y345_R346C]	0.505
WASGIYFVPKG [APBB1IP_Y340_R335W_YF]	10
VVLVSYVPSSQ [SH2B1_Y624]	0.454
ISSLDYISKSK [VAV3_Y294_T298S]	0.467
PIPAAYNRFDQ [CDC73_Y290_YF]	0.426
RCYVYYYSYLL [PTEN_Y177_R173C]	0.936
YSMGCYEFSLG [HMGCL_Y198_I200F]	1.37
VDLIVYLRTNP [TK2_Y181]	0.589
LEAVSYSSPYA [RNLS_Y190_R193P]	0.936
ATGGFYSFGGG [KRT24_Y120_YF]	0.499

Sequence	phosphorylation enrichment
PKGTGCIKTEL [STAT1_Y701_Y701C]	0.54
GKVADYIPQLP [GLS_Y249_A254P]	0.49
NTPNAYLRVNV [ADD2_Y440_T439A]	0.465
EQKKFYNAMKN [SCN5A_Y1495_K1500N_YF]	0.33
YQNGMYGLHQD [SGSH_Y89_H84Y]	0.687
YPPTHYIRRVP [SLC4A11_Y820]	0.492
SVTCTSSPALN [TP53_Y126_Y126S]	0.675
LNCAGYCDALE [MTUS1_Y151]	0.578
AIGYEYSEINI [SIGLEC12_Y588]	0.562
VVEYGYEFFAK [PPP1CB_Y254_D252Y]	0.82
TSNQEYLDVSM [FGFR1_Y766_L769V]	0.681
CFSSEYHFVGG [CTSC_Y345_Y340C_YF]	1.96
YAKSVYWDNTL [NUP107_Y296_E298D]	0.515
VHNLDYYKQTT [FGFR3_Y647_K650Q]	0.617
GISDEYHVIQH [GCDH_Y398_R402Q]	0.526
HRDDGYMPMSP [IRS1_Y612_T608R]	0.53

Target: Fyn (UniProt P06241)
Sequence (P06241 whole entry, looked up): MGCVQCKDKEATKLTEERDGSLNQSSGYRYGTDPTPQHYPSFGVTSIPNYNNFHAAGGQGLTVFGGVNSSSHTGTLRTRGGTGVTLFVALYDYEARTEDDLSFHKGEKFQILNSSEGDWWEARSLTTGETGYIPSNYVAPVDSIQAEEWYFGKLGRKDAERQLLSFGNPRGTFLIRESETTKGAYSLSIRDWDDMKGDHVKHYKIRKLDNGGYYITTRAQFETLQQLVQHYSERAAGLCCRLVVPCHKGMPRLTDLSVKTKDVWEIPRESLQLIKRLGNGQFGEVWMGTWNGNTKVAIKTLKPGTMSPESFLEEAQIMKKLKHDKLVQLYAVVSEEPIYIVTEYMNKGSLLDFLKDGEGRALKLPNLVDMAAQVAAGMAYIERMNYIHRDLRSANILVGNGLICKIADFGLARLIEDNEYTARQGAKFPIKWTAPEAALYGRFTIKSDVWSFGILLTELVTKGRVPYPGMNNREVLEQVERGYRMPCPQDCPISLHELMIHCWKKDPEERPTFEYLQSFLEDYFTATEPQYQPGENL
Assay: as above

Sequence	phosphorylation enrichment
MNPPPYSQFLS [FGF23_Y154]	0.478
LQFRNYQQLFD [MAN2A1_Y442_K440R]	1.08
SWKRRYFLLWA [APBB1IP_Y331_R335W]	0.576
ADRSCYDLSCR [GARS1_Y467_H472R]	0.572
KNDSKYVVKGN [KIT_Y823_N822K]	0.314
FSEVRYMKEPF [HIPK4_Y170_V171M_YF]	0.379
VNFDDYTVNLG [GFPT1_Y367]	0.833
DDSSAYCSVDE [BCKDHA_Y345_R346C]	0.55
WASGIYFVPKG [APBB1IP_Y340_R335W_YF]	7.44
VVLVSYVPSSQ [SH2B1_Y624]	0.452
ISSLDYISKSK [VAV3_Y294_T298S]	0.431
PIPAAYNRFDQ [CDC73_Y290_YF]	0.451
RCYVYYYSYLL [PTEN_Y177_R173C]	0.787
YSMGCYEFSLG [HMGCL_Y198_I200F]	2.12
VDLIVYLRTNP [TK2_Y181]	0.434
LEAVSYSSPYA [RNLS_Y190_R193P]	0.864
ATGGFYSFGGG [KRT24_Y120_YF]	3.93

Sequence	phosphorylation enrichment
PKGTGCIKTEL [STAT1_Y701_Y701C]	0.443
GKVADYIPQLP [GLS_Y249_A254P]	0.484
NTPNAYLRVNV [ADD2_Y440_T439A]	0.437
EQKKFYNAMKN [SCN5A_Y1495_K1500N_YF]	0.367
YQNGMYGLHQD [SGSH_Y89_H84Y]	0.751
YPPTHYIRRVP [SLC4A11_Y820]	0.444
SVTCTSSPALN [TP53_Y126_Y126S]	0.562
LNCAGYCDALE [MTUS1_Y151]	0.514
AIGYEYSEINI [SIGLEC12_Y588]	1.11
VVEYGYEFFAK [PPP1CB_Y254_D252Y]	0.609
TSNQEYLDVSM [FGFR1_Y766_L769V]	0.504
CFSSEYHFVGG [CTSC_Y345_Y340C_YF]	0.992
YAKSVYWDNTL [NUP107_Y296_E298D]	0.599
VHNLDYYKQTT [FGFR3_Y647_K650Q]	0.586
GISDEYHVIQH [GCDH_Y398_R402Q]	0.752
HRDDGYMPMSP [IRS1_Y612_T608R]	0.572

Target: EPHB1 (UniProt P54762)
Sequence (P54762 whole entry, looked up): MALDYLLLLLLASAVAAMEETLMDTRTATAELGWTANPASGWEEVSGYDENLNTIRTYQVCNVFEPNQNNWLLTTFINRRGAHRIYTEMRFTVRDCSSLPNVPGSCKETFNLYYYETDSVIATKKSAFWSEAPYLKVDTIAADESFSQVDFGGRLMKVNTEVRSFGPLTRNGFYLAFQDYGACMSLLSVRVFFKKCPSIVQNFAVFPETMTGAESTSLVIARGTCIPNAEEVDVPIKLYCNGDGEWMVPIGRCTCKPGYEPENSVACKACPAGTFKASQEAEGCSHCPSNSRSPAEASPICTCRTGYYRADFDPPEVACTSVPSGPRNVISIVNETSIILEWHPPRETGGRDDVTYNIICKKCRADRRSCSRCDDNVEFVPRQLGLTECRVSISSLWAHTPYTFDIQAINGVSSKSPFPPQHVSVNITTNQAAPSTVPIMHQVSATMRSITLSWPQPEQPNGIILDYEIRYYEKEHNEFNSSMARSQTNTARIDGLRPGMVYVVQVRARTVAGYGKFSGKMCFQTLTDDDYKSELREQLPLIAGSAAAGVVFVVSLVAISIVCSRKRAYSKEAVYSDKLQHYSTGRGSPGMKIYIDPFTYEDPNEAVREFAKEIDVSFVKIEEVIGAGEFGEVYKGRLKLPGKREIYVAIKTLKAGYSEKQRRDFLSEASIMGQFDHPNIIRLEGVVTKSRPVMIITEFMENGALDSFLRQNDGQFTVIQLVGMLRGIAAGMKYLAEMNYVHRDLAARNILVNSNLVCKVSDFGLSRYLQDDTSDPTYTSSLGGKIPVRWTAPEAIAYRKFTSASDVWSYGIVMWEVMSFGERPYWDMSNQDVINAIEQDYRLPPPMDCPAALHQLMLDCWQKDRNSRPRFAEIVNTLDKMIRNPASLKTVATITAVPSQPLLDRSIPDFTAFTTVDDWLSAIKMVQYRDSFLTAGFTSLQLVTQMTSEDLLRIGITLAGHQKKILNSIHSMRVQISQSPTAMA
Assay: as above

Sequence	phosphorylation enrichment
MNPPPYSQFLS [FGF23_Y154]	0.467
LQFRNYQQLFD [MAN2A1_Y442_K440R]	1.42
SWKRRYFLLWA [APBB1IP_Y331_R335W]	0.443
ADRSCYDLSCR [GARS1_Y467_H472R]	0.487
KNDSKYVVKGN [KIT_Y823_N822K]	0.326
FSEVRYMKEPF [HIPK4_Y170_V171M_YF]	0.473
VNFDDYTVNLG [GFPT1_Y367]	0.787
DDSSAYCSVDE [BCKDHA_Y345_R346C]	0.621
WASGIYFVPKG [APBB1IP_Y340_R335W_YF]	10.1
VVLVSYVPSSQ [SH2B1_Y624]	0.557
ISSLDYISKSK [VAV3_Y294_T298S]	0.38
PIPAAYNRFDQ [CDC73_Y290_YF]	0.643
RCYVYYYSYLL [PTEN_Y177_R173C]	0.82
YSMGCYEFSLG [HMGCL_Y198_I200F]	1.52
VDLIVYLRTNP [TK2_Y181]	0.65
LEAVSYSSPYA [RNLS_Y190_R193P]	0.818
ATGGFYSFGGG [KRT24_Y120_YF]	0.7

Sequence	phosphorylation enrichment
PKGTGCIKTEL [STAT1_Y701_Y701C]	0.774
GKVADYIPQLP [GLS_Y249_A254P]	0.468
NTPNAYLRVNV [ADD2_Y440_T439A]	0.463
EQKKFYNAMKN [SCN5A_Y1495_K1500N_YF]	0.297
YQNGMYGLHQD [SGSH_Y89_H84Y]	0.487
YPPTHYIRRVP [SLC4A11_Y820]	0.407
SVTCTSSPALN [TP53_Y126_Y126S]	0.626
LNCAGYCDALE [MTUS1_Y151]	0.621
AIGYEYSEINI [SIGLEC12_Y588]	0.797
VVEYGYEFFAK [PPP1CB_Y254_D252Y]	0.798
TSNQEYLDVSM [FGFR1_Y766_L769V]	0.866
CFSSEYHFVGG [CTSC_Y345_Y340C_YF]	1.87
YAKSVYWDNTL [NUP107_Y296_E298D]	0.621
VHNLDYYKQTT [FGFR3_Y647_K650Q]	0.686
GISDEYHVIQH [GCDH_Y398_R402Q]	0.554
HRDDGYMPMSP [IRS1_Y612_T608R]	0.577

— the supplement of paper PMC10065799, “High-throughput profiling of sequence recognition by tyrosine kinases and SH2 domains using bacterial peptide display” (eLife, 2023)
